Measured values taken from patent US20180003720A1.

Molecular target: γ-H2AX peptide standard (synthetic peptide …, serine at position 27 phosphorylated)
Assay: sandwich chemiluminescent ELISA: plate-coated JBW301 captures the γ-H2AX peptide standard; detected with rabbit polyclonal anti-H2AX (Abcam) and goat anti-rabbit HRP

γ-H2AX peptide standard (synthetic peptide …, serine at position 27 phosphorylated), sequence (peptide, as listed by the source): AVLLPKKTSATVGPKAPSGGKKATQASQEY

Average RLU (n = 3) at 5 pM γH2AX standard: 993000 RLU
Average RLU (n = 3) at 10 pM γH2AX standard: 2.02e+06 RLU
Average RLU (n = 3) at 20 pM γH2AX standard: 4.6e+06 RLU
Average RLU (n = 3) at 40 pM γH2AX standard: 1e+07 RLU
Average RLU (n = 3) at 80 pM γH2AX standard: 2.08e+07 RLU
Average RLU (n = 3) at 160 pM γH2AX standard: 3.74e+07 RLU
Average RLU (n = 3) at 320 pM γH2AX standard: 5.88e+07 RLU
Average RLU (n = 3) at 640 pM γH2AX standard: 7.92e+07 RLU
Substance: Anti-γ-H2AX (Ser139) mouse monoclonal antibody, clone JBW301 (Millipore)
